The target in the assay is T1, BtubA-E258K (P. dejongeii, UniProt Q8GCC5 1-473, E258K).
T1 construct: BtubA of Prosthecobacter dejongeii (GenBank AY186779) with the point mutation E258K; also called within-dimer mutant of BtubA; source: E. coli, purified as described previously [3], with an added Sephacryl HR-100 column step; not shown: His tag, N-terminal, kept
T1 sequence: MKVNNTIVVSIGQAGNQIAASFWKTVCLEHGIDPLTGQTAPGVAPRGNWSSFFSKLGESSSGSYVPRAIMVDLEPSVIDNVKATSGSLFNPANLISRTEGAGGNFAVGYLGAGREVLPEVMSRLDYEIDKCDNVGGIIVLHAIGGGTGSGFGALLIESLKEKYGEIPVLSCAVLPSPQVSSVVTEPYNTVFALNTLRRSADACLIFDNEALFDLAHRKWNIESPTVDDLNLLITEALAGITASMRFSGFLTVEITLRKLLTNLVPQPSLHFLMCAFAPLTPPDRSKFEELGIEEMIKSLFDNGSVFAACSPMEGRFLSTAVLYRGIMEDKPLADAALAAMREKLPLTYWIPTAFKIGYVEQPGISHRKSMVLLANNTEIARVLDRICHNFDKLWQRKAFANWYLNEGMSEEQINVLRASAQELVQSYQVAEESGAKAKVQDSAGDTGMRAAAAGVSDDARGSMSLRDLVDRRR
The assay can be described thus: AUC; sedimentation equilibrium of BtubA + BtubB mixtures, 20°C, 10,000-14,000 rpm, HMK buffer (50 mM Hepes, 5 mM MgAc, 350 mM KAc, 1 mM EGTA, pH 7.7), no GTP; molar ratios 1:4 to 4:1, each protein 8 to 32 µM; global fit to a monomer-dimer model (HeteroAnalysis). The conditions noted are these: both partners purified.

B1: BtubB-N100E (natural protein)
chain: VREILSIHVGQCGNQIADSFWRLALREHGLTEAGTLKEGSNAAANSNMEVFFHKVRDGKYVPRAVLVDLEPGVIARIEGGDMSQLFDESSIVRKIPGAAENWARGYNVEGEKVIDQIMNVIDSAVEKTKGLQGFLMTHSIGGGSGSGLGSLILERLRQAYPKKRIFTFSVVPSPLISDSAVEPYNAILTLQRILDNADGAVLLDNEALFRIAKAKLNRSPNYMDLNNIIALIVSSVTASLRFPGKLNTDLSEFVTNLVPFPGNHFLTASFAPMRGAGQEGQVRTNFPDLARETFAQDNFTAAIDWQQGVYLAASALFRGDVKAKDVDENMATIRKSLNYASYMPASGGLKLGYAETAPEGFASSGLALVNHTGIAAVFERLIAQFDIMFDNHAYTHWYENAGVSRDMMAKARNQIATLAQSYRDAS
notes: BtubB of Prosthecobacter (species printed only for BtubA: P. dejongeii) with the point mutation N100E; also called within-dimer mutant of BtubB; source: E. coli, purified as described previously [3], with an added Sephacryl HR-100 column step; not shown: His tag, N-terminal, kept
As a reminder, the Kd is the concentration at which binding is half-saturated. On to B1, for which the Kd amounted to 61 µM.

Source of the values: publication PMC2746283, “BtubA-BtubB Heterodimer Is an Essential Intermediate in Protofilament Assembly” (PLoS ONE, 2009).
